# Reference: article PMC4127636 (The Biochemical journal, 2012)
# Changes are numbered by the printed parent chain. Numbers in names are those of the source.
# T1: Atu1476 (Agrobacterium fabrum, UniProt A9CJ11)
# T1 sequence (A9CJ11 1-277): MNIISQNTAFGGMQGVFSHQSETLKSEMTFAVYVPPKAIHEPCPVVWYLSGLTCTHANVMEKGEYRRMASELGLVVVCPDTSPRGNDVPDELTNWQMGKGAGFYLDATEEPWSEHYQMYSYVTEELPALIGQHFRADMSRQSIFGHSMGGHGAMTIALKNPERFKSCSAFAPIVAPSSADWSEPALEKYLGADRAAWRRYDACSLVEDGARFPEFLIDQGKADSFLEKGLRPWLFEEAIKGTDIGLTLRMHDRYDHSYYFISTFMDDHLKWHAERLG
# T2: BioH (Escherichia coli, UniProt P13001)
# T2 sequence (P13001 1-256): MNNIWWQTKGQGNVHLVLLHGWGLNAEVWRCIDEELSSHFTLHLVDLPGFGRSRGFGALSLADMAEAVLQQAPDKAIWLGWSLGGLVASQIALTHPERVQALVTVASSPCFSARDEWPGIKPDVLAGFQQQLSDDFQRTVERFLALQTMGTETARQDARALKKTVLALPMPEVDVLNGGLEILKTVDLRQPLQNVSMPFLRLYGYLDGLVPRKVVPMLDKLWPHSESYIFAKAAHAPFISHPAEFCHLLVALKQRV
# T3: YeiG (Escherichia coli, UniProt P33018)
# T3 sequence (P33018 1-278): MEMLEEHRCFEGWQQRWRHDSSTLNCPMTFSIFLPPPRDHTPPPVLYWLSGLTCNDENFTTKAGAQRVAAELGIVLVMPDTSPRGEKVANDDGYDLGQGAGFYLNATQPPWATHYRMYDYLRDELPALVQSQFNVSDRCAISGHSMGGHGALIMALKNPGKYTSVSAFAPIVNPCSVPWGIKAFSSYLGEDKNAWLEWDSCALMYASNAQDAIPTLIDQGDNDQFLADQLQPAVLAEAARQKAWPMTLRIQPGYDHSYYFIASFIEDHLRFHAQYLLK
# B1: OLEI01171 (Oleispira antarctica) (protein)
# chain: MSIENLSSNKSFGGWHKQYSHVSNTLNCAMRFAIYLPPQASTGAKVPVLYWLSGLTCSDENFMQKAGAQRLAAELGIAIVAPDTSPRGEGVADDEGYDLGQGAGFYVNATQAPWNRHYQMYDYVVNELPELIESMFPVSDKRAIAGHSMGGHGALTIALRNPERYQSVSAFSPINNPVNCPWGQKAFTAYLGKDTDTWREYDASLLMRAAKQYVPALVDQGEADNFLAEQLKPEVLEAAASSNNYPLELRSHEGYDHSYYFIASFIEDHLRFHSNYLNA
# B2: OLEI01171 (Oleispira antarctica; S173A) (protein)
# chain: B1 chain with S172A
# B3: OLEI01171 (Oleispira antarctica; N226K) (protein)
# chain: B1 chain with N225K
# B4: OLEI01171 (Oleispira antarctica; C58A) (protein)
# chain: B1 chain with C57A
# B5: OLEI01171 (Oleispira antarctica; N62A) (protein)
# chain: B1 chain with N61A
# B6: OLEI01171 (Oleispira antarctica; S59A) (protein)
# chain: B1 chain with S58A
# B7: OLEI01171 (Oleispira antarctica; K66A) (protein)
# chain: B1 chain with K65A
# B8: OLEI01171 (Oleispira antarctica; Y98A) (protein)
# chain: B1 chain with Y97A
# B9: OLEI01171 (Oleispira antarctica; N226A) (protein)
# chain: B1 chain with N225A
# B10: OLEI01171 (Oleispira antarctica; A224K) (protein)
# chain: B1 chain with A223K
# Key:
# Atu1476 = biological target: T1, Atu1476; test: esterase activity, temperature profile; assay type: biochemical; conditions: 50 mM potassium Hepes pH 8.0; temperature varied
# BioH = biological target: T2, BioH; test: esterase activity, temperature profile; assay type: biochemical; conditions: 50 mM potassium Hepes pH 8.0; temperature varied
# YeiG = biological target: T3, YeiG; test: esterase activity, temperature profile; assay type: biochemical; conditions: 50 mM potassium Hepes pH 8.0; temperature varied
# [1] = substrate: CCCC(=O)Oc1cccc2ccccc12; test: spectrophotometric esterase assay; assay type: biochemical, Oleispira antarctica; conditions: 0.4 M NaCl, 50 mM potassium Hepes pH 8.0, 20°C
# [2] = substrate: CCC(=O)Oc1cccc2ccccc12; test: spectrophotometric esterase assay; assay type: biochemical, Oleispira antarctica; conditions: 0.4 M NaCl, 50 mM potassium Hepes pH 8.0, 20°C
# [3] = substrate: CC(=O)Oc1ccc([N+](=O)[O-])cc1; test: spectrophotometric esterase assay; assay type: biochemical, Oleispira antarctica; conditions: no salt, 50 mM potassium Hepes pH 8.0, 20°C
# [4] = substrate: CCC(=O)Oc1ccc([N+](=O)[O-])cc1; test: spectrophotometric esterase assay; assay type: biochemical, Oleispira antarctica; conditions: 0.4 M NaCl, 50 mM potassium Hepes pH 8.0, 20°C
# [5] = substrate: CCCC(=O)Oc1ccc([N+](=O)[O-])cc1; test: spectrophotometric esterase assay; assay type: biochemical, Oleispira antarctica; conditions: 0.4 M NaCl, 50 mM potassium Hepes pH 8.0, 20°C
# [6] = substrate: CC(=O)Oc1cccc2ccccc12; test: spectrophotometric esterase assay; assay type: biochemical, Oleispira antarctica; conditions: 50 mM potassium Hepes pH 8.0, 20°C
Molecule,Km ([6]; 0.4 M NaCl),kcat ([6]; 0.4 M NaCl),kcat/Km ([6]; 0.4 M NaCl),also measured
CCCC(=O)Oc1ccc([N+](=O)[O-])cc1 [pNP-butyrate],,,,"esterase activity, temperature profile (Atu1476): using α-naphthyl acetate (A), pNP-butyrate (B and D) and pNP-propionate (C) as substrates; esterase activity, temperature profile (BioH): using α-naphthyl acetate (A), pNP-butyrate (B and D) and pNP-propionate (C) as substrates"
CCC(=O)Oc1ccc([N+](=O)[O-])cc1 [pNP-propionate],,,,"esterase activity, temperature profile (YeiG): using α-naphthyl acetate (A), pNP-butyrate (B and D) and pNP-propionate (C) as substrates"
B1,,,,Km [1]: 200 ± 40 µM; kcat [1]: 0.06 ± 0.01 s⁻¹; kcat/Km [1]: 300 M⁻¹ s⁻¹; Km [2]: 200 ± 30 µM; kcat [2]: 1.5 ± 0.1 s⁻¹; kcat/Km [2]: 8000 M⁻¹ s⁻¹; Km [3]: 700 ± 100 µM; kcat [3]: 0.2 ± 0.03 s⁻¹; kcat/Km [3]: 300 M⁻¹ s⁻¹; Km [4]: 700 ± 200 µM; kcat [4]: 0.3 ± 0.03 s⁻¹; kcat/Km [4]: 400 M⁻¹ s⁻¹; Km [5]: 900 ± 300 µM; kcat [5]: 0.2 ± 0.03 s⁻¹; kcat/Km [5]: 200 M⁻¹ s⁻¹; Km ([6]; no salt): 400 ± 30 µM; kcat ([6]; no salt): 0.8 ± 0.02 s⁻¹; kcat/Km ([6]; no salt): 2000 M⁻¹ s⁻¹
B2,600 ± 100 µM,5.3 ± 0.3 s⁻¹,9000 M⁻¹ s⁻¹,
B3,400 ± 100 µM,3 ± 0.2 s⁻¹,8000 M⁻¹ s⁻¹,
B4,200 ± 10 µM,0.9 ± 0.02 s⁻¹,5000 M⁻¹ s⁻¹,
B5,500 ± 100 µM,1.8 ± 0.2 s⁻¹,4000 M⁻¹ s⁻¹,
B6,400 ± 10 µM,0.8 ± 0.1 s⁻¹,2000 M⁻¹ s⁻¹,
B7,400 ± 10 µM,1.2 ± 0.1 s⁻¹,3000 M⁻¹ s⁻¹,
B8,1700 ± 300 µM,2.9 ± 0.3 s⁻¹,2000 M⁻¹ s⁻¹,
B9,500 ± 100 µM,1.7 ± 0.1 s⁻¹,3000 M⁻¹ s⁻¹,
B10,300 ± 40 µM,1.1 ± 0.1 s⁻¹,4000 M⁻¹ s⁻¹,
